Reference: patent US11994512B2, “Single-cell genomic methods to generate ex vivo cell systems that recapitulate in vivo biology with improved fidelity” (Massachusetts Institute of Technology, priority 2018, dated 2024)

Test system: intracellular proteome of ENR+CD and ENR organoids
Assay: LC-MS/MS TMT proteomics of ENR+CD versus ENR organoids
Type: cell-based, C57BL/6 mice
Details: for Average logFC: ENR+CD versus ENR organoids, sample pairs in aggregate (n=4, 2 technical replicates from two biological donors); for M1-1 Log2 Median Normalized / M1-2 Log2 Median Normalized / M2-1 Log2 Median Normalized / M2-2 Log2 Median Normalized: protein abundance ratio ENR+CD versus ENR organoids, LC-MS/MS TMT proteomics; for M1-1 Log2 Median Normalized: sample pair M1-1; for M1-2 Log2 Median Normalized: sample pair M1-2; for M2-1 Log2 Median Normalized: sample pair M2-1; for M2-2 Log2 Median Normalized: sample pair M2-2; for change: up = enriched in ENR+CD, down = enriched in ENR, FDR<0.05 and log fold change cut-off

B1: Q768S4 (protein, UniProt Q768S4 1-302, looked up)
chain: MADTIFSSGNDQWVCPNDRQLALRAKLQTGWSVHTYQTEKQRRSQCLSPGELEIILQVIQRAERLDILEQQRIGRLVERLETMQRNVMGNGLSQCLLCGEVLGFLGSSSVFCKDCRKKVCTKCGIEASPGQKRPLWLCKICSEQREVWKRSGAWFYKGLPKYILPLKTPGRADDPHFRPLPVEPTETQPPSAETSRVYTWARGRVVSSDSDSDSDLSSSSLEDRPLPSGVKGTKGDKPRGDSGASMESPRLGPARPPSHLSGSQSSLGSEAGTGATEPQGGTPAQPEPRVPGKRHTWATPRY
modifications: full-length
  Average logFC: 1.363
  M1-1 Log2 Median Normalized: 1.2
  M1-2 Log2 Median Normalized: 0.548
  M2-1 Log2 Median Normalized: 1.8455
  M2-2 Log2 Median Normalized: 1.859
  change: up

B2: Q6UQ17 (protein, UniProt Q6UQ17 1-1335, looked up)
chain: MDGVHLGENLEDKDTEFTWEVKANDRTYHKQFKKKGFLCWRQKKYKSNAIHTAKYNIFSFLPLNLYEQFHRMSNLYFLFIIILQGIPEISTLPWFTLFAPLVCLFVIRATRDLVDDIGRHRSDKIINNRPCQILRGKSFLWKKWKNLCVGDVVCLSKDSIVPADLLLLASTEPSSLCYVETADIDGETNLKFRQALTVTHHELTSPKKMASFQGTVTCEEPNSRMHHFVGSLEWNSRKYPLDIGNLLLRGCKIRNTDTCYGLVIYAGLDTKIMKNCGKIHLKRTKLDLMMNKLVALIFLSLVIASLLLTVGFTFMVKQFKAKHYYMSPTHGRSDAMESFFIFWGFLILLSVMVPMAMFIIAEFIYLGNSIFINWDLNMYYEPLDMPAKARSTSLNDQLGQVQYIFSDKTGTLTQNIMTFKKCCINGCIYDSDDEHGTLRKRNPYAWNPFADGKLQFYNKELESLVQGRQDRAVQEFWRLLAICHTVMVQEKDNQLLYQAASPDEEALVTAARNFGYVFLSRTQDTITLVELGEERVYQVLAMMDFNSVRKRMSVLVRNPEGSICLYTKGADTVILERLRSKGVMEATTEEVLAAFAEQTLRTLCLAYKDVEEDAYKEWEPEHQEAALLLQNRAQALHQVYNKMEQNLQLLGATAIEDKLQDGVPETIKCLKKGNIKIWVLTGDKPETAVNIGFACQLLSENMIILEDKDINQVLERYWEDNVHQKAFKMMTHHNMALVINGEFLDQLLLSLRKEPRALVQNAVVDEVAQEPVVSALDFLQKRRISQMWRNAGPSLGTSHSADSKIRESPEVQRERAFVDLASKCQAVICCRVTPKQKALVVALVKKYQQVVTLAIGDGANDVNMIKTADIGVGLAGQEGMQAVQNSDYVLAQFCYLQRLLLVHGRWSYMRVCKFLRYFFYKTVASMMAQIWFSLVNGFSAQPLYEGWFLALFNLLYSTLPVLYIGLFEQDVTAEKSLKMPELYMAGQKGELFNYSIFMQAITHGTITSMINFFVTVMVSSDMSKAGSSHDYQSLGVLVAISSLLSVTLEVMLVVKYWTLLFVGAVVLSLSSYVLMTSLTQSLWMYRISPKTFPFLFADYNVLFEPCSLLLIVLNVALNVLPMLALRTIHRTVLKQRPKGEEEAPSEEVAVEPAMRHLRRGIPARRSSYAFSHREGYANLITQGTILRRQTHVDDSDGGTVCESLNPPEEDIPLQNKDSVFNPRKISILAKKRRHFFGKGSQEEVHPNTSSQTMEKQPTIHRDSETQKLPTTTSATSGKLLPSASEDEAFYSVASQYTLASQPKHTDVHSSFWKSPLWRDSASSSPSQLEVPRKQS
modifications: full-length
  Average logFC: 1.464
  M1-1 Log2 Median Normalized: 1.126
  M1-2 Log2 Median Normalized: 1.134
  M2-1 Log2 Median Normalized: 1.7555
  M2-2 Log2 Median Normalized: 1.841
  change: up

B3: Q6ZQL4 (protein, UniProt Q6ZQL4 1-677, looked up)
chain: MAAGGGGSYDPLAPAGVPCAFSPDSQAYFALASSDGQLRVWETANNRLHQEYVPSAHLSGTCTCLAWAPARLQAKESHQRKKRKSEVTGTKDQADLLALGTAVGSILLYSTVRGELHSKLTSGGHENRVNCIQWHQDNDCLYSCSDDKYIVEWSTQTCKVKCKWKGDNSSVSSLCISPDGKMLLSAGRTIKLWVLETKEVYRHFTGHATPVSSLRFTTIRPNESQPSDGITGLYFLSGAVHDRLLNVWQVRSENKEKSAVMSFTVTDEPVYVDLTLSENKEEPVKLAVVCRDGQVHLFEHILNGHCKKPLTSNCTIQIATPGKGKKVTPKPIPILAASFCLDKMSLLLVYGNWFQPTIERVALNSKDTHICLERDISNCWAPTVETAITKVKTPVMNSEAKVLVPGIPGHHAPIKLPPAQPKEAENKRKLGSTEATIEERLGAMDLDRKGRKDDLQTNSFAVLLTQGLESNDFEILNKVLQTKNVNLIKRTVLRIPLRVVIPLLQELTKRLQGHPNSAALMIQWLKCVLTIHASYLSTLPDLVEQLGTLYQLMESRVKTFQKLSNLHGKLILLVTQVTASEKSKKMTSPGQKAKLVYEEESSEEESDDEVPEKDSDDNWDEDEDKDSEKDEGVDEDNEEEDEDMEDKEENEEDREVSSEKELNGDSDLDPENESEEE
modifications: full-length
  Average logFC: −1.143
  M1-1 Log2 Median Normalized: −1.562
  M1-2 Log2 Median Normalized: −0.715
  M2-1 Log2 Median Normalized: −0.9435
  M2-2 Log2 Median Normalized: −1.351
  change: down

B4: Q6J9G1 (protein, UniProt Q6J9G1 1-429, looked up)
chain: MGEKGHLSRVLLECSLSDKLCVVREKQYEVIIVPALLVGGFLILLAIILWLFIRGQRSQRQSPGPRGTASVPASRGRSQEAAGHGEKVLLPLKETSVEGFLRAATPRLAKLQVPREQLLEVLEQIHSGSCGTLYHATMTTKDHPKPKSVVLKALEDPVGLQEVQDFIGRIQFYQYLGKHKNLVQLEGCCTERLPLYMMLEDVVPGDLLSFLWTCRRDVMTMDGLLYDLTEKQIYHIGKQILLALEFLQEKHLFHGDVAARNILIQSDLTPKLCHLGLAYEVHAHGAISSARSSTIPLKWLAPERLLLRPASIRGDIWSFGILLYEMVTLGAPPYPEVPPTSILQYLQRKKIMKRPSSCSHAMYNIMKCCWRWSEDSRPLLGQLLQRLEAASRSADDKAVLQVPELVVPELYADVAGIRAESISYSFSVL
modifications: full-length
  Average logFC: 1.195
  M1-1 Log2 Median Normalized: 1.631
  M1-2 Log2 Median Normalized: 1.194
  M2-1 Log2 Median Normalized: 0.7015
  M2-2 Log2 Median Normalized: 1.233
  change: up

B5: Q6DI86 (protein, UniProt Q6DI86 1-829, looked up)
chain: MFRLRSISLLSWRAFPLRPFSCESLITQMQKCTNEEQVFDLIETNTATLSEQQVGCAFNVLWQFQKQKTVLEKNVDHVRNHPQFLTLCSITTNHIPAMSDATLVDVLYSIKQFAVESHHPLIEALVTEAWKRLERFDTNVLSIFSTCLADQHLYFSPLMGKIADIVNRRLETIQDLRALSVLMVSISSLISPCFQERLVIRTELLFDTVNSSKVNIARRILLFLRNVKYSHYPLLERCNQVFIRNMSHLDLESISKILNLYQFLQFHSFEFVEAARGRLAEMTLPSDHPESFVRLFAALGPVARPEIKKQLKSTILLLSEELSSQQALIVLGAMEDMESRNSHLLKKIVSVLYKHLDNYKSIELLKIIQALTFLHFQSKELFMKLRELLLSRLEASVIPSEISVLVSALSMLPHPHLSETAVSRIEAVLPQCDFRELNDLVVYLMRWIQSDLVCLASTTGKQLDLLQKLDQLGRHRLQQSTNLDLLWEELKSLKGEWLHESLVEESIAALLRFMDEIDYSNIAKVASFLSRTNYLNTLLLDRIASVAIQQVEKIHPFSVLAIILPFSILNYDPPQKDEFFGACVQCCNSYLGTLDPGTLVFLGFSLAVLEYFPEDLLKKMFNIEFLARLDSQLEILPSSLSARIQFRLMELNRAVCLECPELQVPWFHDRFCQRQFNKDTGVMNGAQQQIYKMLAEVLGGHQCVKPSALSPYYHTVGFECILDKRKKPLPYESHSIAPRKSLGMHWDSRVEPRLPPEAERIAIELLDVRAFCSNIPHLKGKSAMKKRHLEILGYRVIQIPYFEWNSMAMSTKDARMDYLREHLFGEGKS
modifications: full-length
  Average logFC: 1.459
  M1-1 Log2 Median Normalized: 1.46
  M1-2 Log2 Median Normalized: 1.066
  M2-1 Log2 Median Normalized: 1.4225
  M2-2 Log2 Median Normalized: 2.251
  change: up

B6: Q6PCN3 (protein, UniProt Q6PCN3 1-1308, looked up)
chain: MQCLAAALKDETNMSGGGEQADILPANYVVKDRWKVLKKIGGGGFGEIYEAMDLLTRENVALKVESAQQPKQVLKMEVAVLKKLQGKDHVCRFIGCGRNEKFNYVVMQLQGRNLADLRRSQPRGTFTLSTTLRLGKQILESIEAIHSVGFLHRDIKPSNFAMGRLPSTYRKCYMLDFGLARQYTNTTGDVRPPRNVAGFRGTVRYASVNAHKNREMGRHDDLWSLFYMLVEFAVGQLPWRKIKDKEQVGMIKEKYEHRMLLKHMPSEFHLFLDHIASLDYFTKPDYQLIMSVFENSMKERGIAENEAFDWEKAGTDALLSTSTSTPPQQNTRQTAAMFGVVNVTPVPGDLLRENTEDVLQGEHLSDQENAPPILPGRPPEGLGPGPHLVPHPGGPEAEVWEETDVNRNKLRINIGKTPCVEEEQSRGVGVPSSPVRAPPDSPTTPVRSLCYRRVNSPESERLSTAADGRVELQERRSRMDLPGSPSRQACSSQPAQMLSVDTGHADRQASGRMDVSASVEQEALSNAFRSVPLAEEEDFDSKEWVIIDKETELKDFPPGAEPSTSGTTDEEPEELRPLPEEGEERRRLGTEPTVRPRGRGMHTLTEEDPRQMLPQPAPPQLSQADGRSETSQPPTPGSPSHSPLHSGPRPRRRESDPTGPQRQVFSVAPPFEVNGLPRAVPLALPYQDFKRDLSDYRERARLLNRVRRVGFSHMLLTAPQVPLAPFQPQANGKEGEEEEEEEEEEEEEEEEEEEEEEEEEEEEEEEEEAGALGEVLGPRSGSSSEGSERSTERSQEGAPSTLLADDQKEARGRASMADGDLEPEEGSKTLVLVSPGDMKKSPVTAELAPDPDLGTLAALTPQHERPQPTGSQLDVSEPGTLSSILKSEPKPSGPGAGGGVGLVAPGAGVTAVTSPFTKVERTFVHIAEKSHLNVMSSGGQASRPEELSTGGELGLEVLSEGGIAEEGAPAPLENGMALAGLDGTEMESCALSGPPGETPSEVVTDSLPNGPALADGPAPASQQEPVTKKGTTISPSRHAMPGSRPRSRIPVLLSEEDTGSEPSGSLSAKERWSKRARPQQDLARLVMEKRQGRLLLRLASGASSSSSEEQRRASETLSGTGSEEDTPASEPTTALPRKAVRAATTRSRIPRPISVSMPVEGQQLPGRPHGAASATDLAITSRLQLQKPSGLAPAADLRPKQSASRGPGPGRAQVSKPAAPRSPGLPASTARHPSGSPRSQSLSRKESSSPSHQARPGVPPSRGVLQVRSQPEASPVAPKKGPKGKQLQTQRAATKGRAVVSEGRPGAR
modifications: full-length
  Average logFC: 1.301
  M1-1 Log2 Median Normalized: 0.917
  M1-2 Log2 Median Normalized: 1.005
  M2-1 Log2 Median Normalized: 1.5695
  M2-2 Log2 Median Normalized: 1.711
  change: up
